Experimental data published in publication PMC7747622.

Tests used:
[1] = tested on: M-Ig of patient (monoclonal IgG kappa) (human (patient)); experiment: SPR; conditions: 2 mM Mg2+; aptamer immobilized; scrambled channel subtracted; SPR: PBS, 2 mM MgCl2 (SB), 6.25-200 nM IgG, 20 ul/min, 1:1 model; ELONA: SuperBlock or ChonBlock, 0.05% Tween 20, 2 mM MgCl2, washes PBS/2 mM MgCl2/0.05% Tween …
[2] = tested on: daratumumab (anti-CD38 therapeutic mAb, IgG kappa); experiment: SPR; conditions: SPR: PBS, 2 mM MgCl2 (SB), 6.25-200 nM IgG, 20 ul/min, 1:1 model; ELONA: SuperBlock or ChonBlock, 0.05% Tween 20, 2 mM MgCl2, washes PBS/2 mM MgCl2/0.05% Tween …

Sequence	Kd [1]	Kd [2]
GGAGGCTCTCGGGACGACGAGTGTGTCAGGTGGATGGACGGTTGGGTTGGGTAGGCAAGGATCGCTGCTGACCAGTTGAG [aptC]	1.85 nM	–
GGAGGCTCTCGGGACGACGGCGCGGCGATTTGGGGTATGGGGAGGGGGTGGGTTGGGTCCATCGCTGCTGACCAGTTGAG [aptD]	–	2.67 nM
